Data reported in patent publication US20110294195A1.

Target: CD81 on Huh7.5 cells (human) (UniProt P60033)
Test: cell-based or functional assay

Chain of UniProt P60033 (P60033 whole entry): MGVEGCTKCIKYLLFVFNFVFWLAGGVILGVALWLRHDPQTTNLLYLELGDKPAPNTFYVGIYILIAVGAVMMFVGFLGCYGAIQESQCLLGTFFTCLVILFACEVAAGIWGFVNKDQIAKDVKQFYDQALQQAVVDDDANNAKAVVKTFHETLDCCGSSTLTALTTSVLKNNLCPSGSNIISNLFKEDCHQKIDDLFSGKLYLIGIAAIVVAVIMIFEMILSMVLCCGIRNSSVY

“anti-CD81 (JS-81; BD Biosciences Pharmingen, Franklin Lakes, N.J.) (antibody)” showed a % inhibition of infection of Huh7.5 cells (FFU) with genotype 2a recombinant J6/JFH1 at 0.02 µg/mL anti-CD81 of under 50 % inhibition, a % inhibition of infection of Huh7.5 cells (FFU) with genotype 2a recombinant J6/JFH1 at 2.5 µg/mL anti-CD81 of over 90 % inhibition and a % inhibition of infection of Huh7.5 cells (FFU) with genotype 7a recombinant QC69/JFH1 at 0.02 µg/mL anti-CD81 of under 50 % inhibition. For the same substance, the % inhibition of infection of Huh7.5 cells (FFU) with genotype 7a recombinant QC69/JFH1 at 2.5 µg/mL anti-CD81 was over 90 % inhibition.
